For 33 molecules, IC50 and % Adhesion Inhibition results are on record in patent US20020103111A1, “Inhibitors of MAdCAM-1-mediated interactions and methods of use therefor” (Millennium Pharmaceuticals, Inc., priority 1996, published 2002).

“And” between values parts separate entries of the source, which are not always exact repeats. Identical values can stand only once. Bridge positions count the residues as written; N and C are the ends. Ends that are not written are not given here. * marks the point of attachment. Butanoyl(4-pyren-1-yl) = O=C(CCCc1ccc2ccc3cccc4ccc1c2c34)*; Tpa = triphenylacetyl, O=C(C(c1ccccc1)(c1ccccc1)c1ccccc1)*; Acetyl(1-pyrenyl) = O=C(Cc1ccc2ccc3cccc4ccc1c2c34)*; Phenylacetyl(4-Ph) = O=C(Cc1ccc(-c2ccccc2)cc1)*; Benzoyl(4-heptyl) = CCCCCCCc1ccc(C(=O)*)cc1; Acetyl(1-naphthyl) = O=C(Cc1cccc2ccccc12)*; Diphenylacetyl = O=C(C(c1ccccc1)c1ccccc1)*; cPrCO(2,2,3,3-Me4) = CC1(C)C(C(=O)*)C1(C)C; Ibuprofenoyl = CC(C)Cc1ccc(C(C)C(=O)*)cc1; Hexanoyl(6-Ph) = O=C(CCCCCc1ccccc1)*; PhAc = O=C(Cc1ccccc1)*

The target of the first test is human α4β7 integrin (human) (UniProt P13612). The experiment in a line: inhibition of HUT 78 cell adhesion to murine MAdCAM-1/mCk.
As for {Phenylacetyl(4-Ph)}-LDTSL (not fully specified (C-terminus); printed as Bipa-Leu-Asp-Thr-Ser-Leu) [Bipa-Leu-Asp-Thr-Ser-Leu], the IC50 is 485 µM.
Regarding {cPrCO(2,2,3,3-Me4)}-LDTSL [Tpc-Leu-Asp-Thr-Ser-Leu], the concentration for half-maximal inhibition (IC50) turned out to be 121 µM.
The same measure, in the same setting: under {Benzoyl(4-heptyl)}-LDTSL (not fully specified (C-terminus); printed as Hbz-Leu-Asp-Thr-Ser-Leu) [Hbz-Leu-Asp-Thr-Ser-Leu] stands 401 µM; under Ac-LDTSL (not fully specified (C-terminus); printed as Ac-Leu-Asp-Thr-Ser-Leu) [Ac-Leu-Asp-Thr-Ser-Leu (00389-1A)], 205 µM; under Tpa-LDTSL [Tpa-Leu-Asp-Thr-Ser-Leu], 0.3 µM.
Same read-out and setting: as for PhAc-LDTSL (not fully specified (C-terminus); printed as Pha-Leu-Asp-Thr-Ser-Leu) [Pha-Leu-Asp-Thr-Ser-Leu], the figure is 2130 µM.
On the same count and under the same terms, under Ibuprofenoyl-LDTSL (not fully specified (C-terminus); printed as Impa-Leu-Asp-Thr-Ser-Leu) [Impa-Leu-Asp-Thr-Ser-Leu] stands 1140 µM.
Molecule Diphenylacetyl-LDTSL (not fully specified (C-terminus); printed as Dpa-Leu-Asp-Thr-Ser-Leu) [Dpa-Leu-Asp-Thr-Ser-Leu] displayed an IC50 of 11 µM.
As for {Acetyl(1-pyrenyl)}-LDTSL (not fully specified (C-terminus); printed as Paa-Leu-Asp-Thr-Ser-Leu) [Paa-Leu-Asp-Thr-Ser-Leu], the half-maximal inhibitory concentration (IC50) worked out at 0.5 µM.
On the same count and under the same terms, as for {Acetyl(1-naphthyl)}-LDTSL (not fully specified (C-terminus); printed as Npa-Leu-Asp-Thr-Ser-Leu) [Npa-Leu-Asp-Thr-Ser-Leu], the figure is 548 µM; as for {Butanoyl(4-pyren-1-yl)}-LDTSL (not fully specified (C-terminus); printed as Pba-Leu-Asp-Thr-Ser-Leu) [Pba-Leu-Asp-Thr-Ser-Leu (00386-1A)], 2.8 µM; as for {Hexanoyl(6-Ph)}-LDTSL (not fully specified (C-terminus); printed as Phx-Leu-Asp-Thr-Ser-Leu) [Phx-Leu-Asp-Thr-Ser-Leu], 818 µM.
In the case of Ac-LDTSL-NH2 [Ac-Leu-Asp-Thr-Ser-Leu], the IC50 was 530 µM and 278 µM.

A further test has the same target. The test can be described thus: inhibition of HUT 78 cell adhesion to murine MAdCAM-1/mCk at 50 µM.
{Butanoyl(4-pyren-1-yl)}-LDTSL (not fully specified (C-terminus); printed as Pba-Leu-Asp-Thr-Ser-Leu) [Pba-Leu-Asp-Thr-Ser-Leu (00386-1A)]: the % Adhesion Inhibition was determined as 88%.

Another test shares this target. The test can be described thus: inhibition of HUT 78 cell adhesion to murine MAdCAM-1/mCk at 500 µM.
{Phenylacetyl(4-Ph)}-LDTSL (not fully specified (C-terminus); printed as Bipa-Leu-Asp-Thr-Ser-Leu) [Bipa-Leu-Asp-Thr-Ser-Leu]: the % Adhesion Inhibition came to 54%.
Molecule {cPrCO(2,2,3,3-Me4)}-LDTSL [Tpc-Leu-Asp-Thr-Ser-Leu] showed a % Adhesion Inhibition of 39%.
Same read-out and setting: as for {Benzoyl(4-heptyl)}-LDTSL (not fully specified (C-terminus); printed as Hbz-Leu-Asp-Thr-Ser-Leu) [Hbz-Leu-Asp-Thr-Ser-Leu], the figure is 51%; as for Ac-LDTSL (not fully specified (C-terminus); printed as Ac-Leu-Asp-Thr-Ser-Leu) [Ac-Leu-Asp-Thr-Ser-Leu (00389-1A)], 29%.
On the same count and under the same terms, under PhAc-LDTSL (not fully specified (C-terminus); printed as Pha-Leu-Asp-Thr-Ser-Leu) [Pha-Leu-Asp-Thr-Ser-Leu] stands 38%; under Ibuprofenoyl-LDTSL (not fully specified (C-terminus); printed as Impa-Leu-Asp-Thr-Ser-Leu) [Impa-Leu-Asp-Thr-Ser-Leu], 44%.
The same measure, in the same setting: as for {Acetyl(1-naphthyl)}-LDTSL (not fully specified (C-terminus); printed as Npa-Leu-Asp-Thr-Ser-Leu) [Npa-Leu-Asp-Thr-Ser-Leu], the figure is 39%.
For {Hexanoyl(6-Ph)}-LDTSL (not fully specified (C-terminus); printed as Phx-Leu-Asp-Thr-Ser-Leu) [Phx-Leu-Asp-Thr-Ser-Leu], the % Adhesion Inhibition was found to be 32%.
Still for that read-out and setting: as for Ac-LDTSL-NH2 [Ac-Leu-Asp-Thr-Ser-Leu], the figure is 50% and 71%.

The next test has as its target human α4β7 integrin (human), P13612. The experiment in a line: inhibition of RPMI 8866 cell adhesion to huMAdCAM-1-Ig.
Turning to LDTSL (modifications not checked) [R1-Leu-Asp-Thr-Ser-Leu, L# 1491 (Table 4)], the half-inhibitory concentration (IC50) was 3.4 µM.

The next test has the same target. The experiment in a line: inhibition of HUT 78 cell adhesion to murine MAdCAM-1/mCk.
As to Ac-WRGLDTS (not fully specified (C-terminus); printed as Ac-Trp-Arg-Gly-Leu-Asp-Thr-Ser) [Ac-Trp-Arg-Gly-Leu-Asp-Thr-Ser], the IC50 amounted to 862 µM.
For Ac-LDVSL (not fully specified (C-terminus); printed as Ac-Leu-Asp-Val-Ser-Leu) [Ac-Leu-Asp-Val-Ser-Leu], the half-maximal inhibitory concentration (IC50) was determined as 71 µM.
Still for that read-out and setting: as for Ac-LDTTL (not fully specified (C-terminus); printed as Ac-Leu-Asp-Thr-Thr-Leu) [Ac-Leu-Asp-Thr-Thr-Leu], the figure is 101 µM; as for Ac-RGLDT (not fully specified (C-terminus); printed as Ac-Arg-Gly-Leu-Asp-Thr) [Ac-Arg-Gly-Leu-Asp-Thr], 542 µM.
Ac-GLDTS (not fully specified (C-terminus); printed as Ac-Gly-Leu-Asp-Thr-Ser) [Ac-Gly-Leu-Asp-Thr-Ser] had an IC50 of 745 µM.
Still for that read-out and setting: as for Ac-LDASL (not fully specified (C-terminus); printed as Ac-Leu-Asp-Ala-Ser-Leu) [Ac-Leu-Asp-Ala-Ser-Leu], the figure is 1000 µM; as for Ac-HWRGLDT (not fully specified (C-terminus); printed as Ac-His-Trp-Arg-Gly-Leu-Asp-Thr) [Ac-His-Trp-Arg-Gly-Leu-Asp-Thr], 584 µM; as for Ac-WRGLDT (not fully specified (C-terminus); printed as Ac-Trp-Arg-Gly-Leu-Asp-Thr) [Ac-Trp-Arg-Gly-Leu-Asp-Thr], 725 µM.
Still for that read-out and setting: under Ac-RGLDTSL (not fully specified (C-terminus); printed as Ac-Arg-Gly-Leu-Asp-Thr-Ser-Leu) [Ac-Arg-Gly-Leu-Asp-Thr-Ser-Leu] stands 1580 µM; under Ac-GLDTSL (not fully specified (C-terminus); printed as Ac-Gly-Leu-Asp-Thr-Ser-Leu) [Ac-Gly-Leu-Asp-Thr-Ser-Leu], 339 µM; under Ac-RGLDTS (not fully specified (C-terminus); printed as Ac-Arg-Gly-Leu-Asp-Thr-Ser) [Ac-Arg-Gly-Leu-Asp-Thr-Ser], 1790 µM.
The same measure, in the same setting: as for Ac-CLDTSLC (disulfide 1-7) [Ac-Cys*-Leu-Asp-Thr-Ser-Leu-Cys*], the figure is 102 µM; as for LATSL (modifications not checked) [Pba-Leu-Ala-Thr-Ser-Leu], 28 µM; as for Ac-LFTSL (not fully specified (C-terminus); printed as Ac-Leu-Phe-Thr-Ser-Leu) [Ac-Leu-Phe-Thr-Ser-Leu], 300 µM.
Ac-LDTSF (not fully specified (C-terminus); printed as Ac-Leu-Asp-Thr-Ser-Phe) [Ac-Leu-Asp-Thr-Ser-Phe] came in with an IC50 of 144 µM.
Same read-out and setting: under Ac-LDSSL (not fully specified (C-terminus); printed as Ac-Leu-Asp-Ser-Ser-Leu) [Ac-Leu-Asp-Ser-Ser-Leu] stands 611 µM.
Still for that read-out and setting: under Ac-LETSL (not fully specified (C-terminus); printed as Ac-Leu-Glu-Thr-Ser-Leu) [Ac-Leu-Glu-Thr-Ser-Leu] stands 60.7 µM; under PLDTSL (modifications not checked) [Pba-Pro-Leu-Asp-Thr-Ser-Leu], 47 µM; under LYTSL (modifications not checked) [Pba-Leu-Tyr-Thr-Ser-Leu], 30 µM.

The target is the same in the next test. The test can be described thus: inhibition of HUT 78 cell adhesion to murine MAdCAM-1/mCk at 250 µM.
The molecule Ac-CLDTSLC (disulfide 1-7) [Ac-Cys*-Leu-Asp-Thr-Ser-Leu-Cys*] registered a % Adhesion Inhibition of 51%.
Still for that read-out and setting: as for LATSL (modifications not checked) [Pba-Leu-Ala-Thr-Ser-Leu], the figure is 100%.

For the next test the target is unchanged. The experiment in a line: inhibition of HUT 78 cell adhesion to murine MAdCAM-1/mCk at 500 µM.
Turning to Ac-WRGLDTS (not fully specified (C-terminus); printed as Ac-Trp-Arg-Gly-Leu-Asp-Thr-Ser) [Ac-Trp-Arg-Gly-Leu-Asp-Thr-Ser], the % Adhesion Inhibition amounted to 44%.
Ac-LDTTL (not fully specified (C-terminus); printed as Ac-Leu-Asp-Thr-Thr-Leu) [Ac-Leu-Asp-Thr-Thr-Leu] yielded a % Adhesion Inhibition of 98%.
Still for that read-out and setting: under Ac-RGLDT (not fully specified (C-terminus); printed as Ac-Arg-Gly-Leu-Asp-Thr) [Ac-Arg-Gly-Leu-Asp-Thr] stands 48%.
The same measure, in the same setting: under Ac-GLDTS (not fully specified (C-terminus); printed as Ac-Gly-Leu-Asp-Thr-Ser) [Ac-Gly-Leu-Asp-Thr-Ser] stands 43%.
Same read-out and setting: as for Ac-LDASL (not fully specified (C-terminus); printed as Ac-Leu-Asp-Ala-Ser-Leu) [Ac-Leu-Asp-Ala-Ser-Leu], the figure is 47%; as for Ac-HWRGLDT (not fully specified (C-terminus); printed as Ac-His-Trp-Arg-Gly-Leu-Asp-Thr) [Ac-His-Trp-Arg-Gly-Leu-Asp-Thr], 49%; as for Ac-WRGLDT (not fully specified (C-terminus); printed as Ac-Trp-Arg-Gly-Leu-Asp-Thr) [Ac-Trp-Arg-Gly-Leu-Asp-Thr], 46%.
As for Ac-RGLDTSL (not fully specified (C-terminus); printed as Ac-Arg-Gly-Leu-Asp-Thr-Ser-Leu) [Ac-Arg-Gly-Leu-Asp-Thr-Ser-Leu], the % Adhesion Inhibition came out at 35%.
With Ac-GLDTSL (not fully specified (C-terminus); printed as Ac-Gly-Leu-Asp-Thr-Ser-Leu) [Ac-Gly-Leu-Asp-Thr-Ser-Leu], the % Adhesion Inhibition is 58%.
Regarding Ac-RGLDTS (not fully specified (C-terminus); printed as Ac-Arg-Gly-Leu-Asp-Thr-Ser) [Ac-Arg-Gly-Leu-Asp-Thr-Ser], the % Adhesion Inhibition is 31%.
Same read-out and setting: under Ac-LFTSL (not fully specified (C-terminus); printed as Ac-Leu-Phe-Thr-Ser-Leu) [Ac-Leu-Phe-Thr-Ser-Leu] stands 29%; under Ac-LDTSF (not fully specified (C-terminus); printed as Ac-Leu-Asp-Thr-Ser-Phe) [Ac-Leu-Asp-Thr-Ser-Phe], 86%.
Still for that read-out and setting: as for Ac-LDSSL (not fully specified (C-terminus); printed as Ac-Leu-Asp-Ser-Ser-Leu) [Ac-Leu-Asp-Ser-Ser-Leu], the figure is 38%; as for Ac-LETSL (not fully specified (C-terminus); printed as Ac-Leu-Glu-Thr-Ser-Leu) [Ac-Leu-Glu-Thr-Ser-Leu], 98%; as for LYTSL (modifications not checked) [Pba-Leu-Tyr-Thr-Ser-Leu], 100%.

As usually defined, the IC50 is the point on the concentration scale where inhibition reaches its midpoint.
